Assay: soluble on expression in E. coli; label from the status in PepcDB or PDB records

| Sequence | soluble on expression in E. coli |
| --- | --- |
| MTIKLVATDMDGTFLDGNGRFDMDRLKSLLVSYKEKGIYFAVASGRGFLSLEKLFAGVRDDIIFIAENGSLVEYQGQDLYEATMSRDFYLATFEKLKTSPYVDINKLLLTGKKGSYVLDTVDETYLKVSQHYNENIQKVASLEDITDDIFKFTTNFTEETLEDGEAWVNENVPGVKAMTTGFESIDIVLDYVDKGVAIVELVKKLGITMDQVMAFGDNLNDLHMMQVVGHPVAPENARPEILELAKTVIGHHKERSVIAYMEGL | not soluble |
| MTIPLHTITSFRATFNPFSRSARPCRLLLSLLRNPSTTPASSPTHIDIQVTQLPRHSTQPPEMTVGFRGGKEVKIEVGKKQMKIGDVIEELARVGRSIEREETLKG | not soluble |
| MTIREEGLIVKDQVLSCYLKGKRCLFVIVKILKDSSNSFLCTVQNKNGDQYVKKWFRKHENNEKLGRPTFKEVEKDWKENKESFMYPNVKALY | not soluble |
| MTISRRSLLEGLLGAAAGLALLPVLGGRAGAALPREAEVVVVGAGAAGIAAARRIVAAGRKVIVVEAASEIGGRCVTDTTSFAAPFDRGARWLHNPDSNPLVRLARSSGFAVTPVAPGQKVRIGRRNARSRETEDFLAAFVRASRAISDASRGKSDISCAAALPNDLGDWAATIEYVLGPATTSKDLRALSAMDAVRTLDRTALLGCPQGVGSLLTQLASSLPIALSTPVKRIVWSGRDLAVETTAGRIGARAIIVTASTNVLTSGNLGFSPELPKRQLDAAARLSLGSIDRIALQFKGNPLGLSRDETIIERADDIRTATLVGNIGGTSLCTVDVAGSFGRQLAAQGEAAMQDFAIEWLGKLFGSDIAGAVERKAVTRWNEMPYVLGAMSAAEPGGQPSRKVLGEPLGNLFFAGEATHETLFGTVQGAWESGERAADAALKKIGAVKEPAPEKPVRKQKPRREPQRQREQRPPATASGTPSWWRLEHHHHHH | not soluble |
| MTITRQDAWTQDEDLLLAEVVLRHIREGGTQLSAFEEVGRALTRTAAACGFRWNSYVRKQYQSGIELAKKQRKELRKQIGVHSVNMPNSMKQTASASSEGKRDLSIQDVIQFLEQFKETPSAQEFQLEREKLKEQIQSLQKELEDLRSENQTLRNQLEMTEEDYKALIDIMDRARKMVVSKEDGRMKKAAQETLEHHHHHH | not soluble |
| MTKENICIVFGGKSAEHEVSILTAQNVLNAIDKDKYHVDIIYITNDGDWRKQNNITAEIKSTDELHLENGEALEISQLLKESSSGQPYDAVFPLLHGPNGEDGTIQGLFEVLDVPYVGNGVLSAASSMDKLVMKQLFEHRGLPQLPYISFLRSEYEKYEHNILKLVNDKLNYPVFVKPANLGSSVGISKCNNEAELKEGIKEAFQFDRKLVIEQGVNAREIEVAVLGNDYPEATWPGEVVKDVAFYDYKSKYKDGKVQLQIPADLDEDVQLTLRNMALEAFKATDCSGLVRADFFVTEDNQIYINETNAMPGFTAFSMYPKLWENMGLSYPELITKLIELAKERHQDKQKNKYKIDRSHHHHHH | soluble |
| MTKETYPKATVLDISASVEYSDGGIISKQVLKNEVGNITLFSFDQGQGLSEHTAPFDAFVQILEGEAEIRIGGQPLLLKAGRSVIMPANVSHALHATKRFKMLLTMIRG | not soluble |
| MTKKKAKKNQKTGAAAAPPHESQKKEKENDFEMLEDIKRDEDLFFSETDISNISNFIRTTNKSFNSLGNTFVEQFTNRCSLAIFQALATCFEIHSEERDDVIRRLNIIYIVWRLPDLEPELRPKPPKNLSDVYSHPYATFLFAAEQIEHRIEAMLARIIVSNNINQVEKLTAPDFIQKAAAGGLTVVVEGIDRTGFVDWCEANTDHWPEVHDSVVPLPKAMRELGCERKDYESGMAEAFYPIMHNAPTQLPPRMEALEQEDPIIREWRLKVDPENTSATPVIYSMCSGDKMQEELMQAFDELEPTIAEYQSDLIAGMTAPELEELNKQIDCDDQMSQSSDSAPPSEVSSDLELDTALDIRDGMTMPLVDLKDEVIEGCVDRILDGTTLTTSKSDMMIQFVRTALITHPQYDRLLQASVLDENIISFIRTNVKFAGAFLVRNALSEQDTCLLFKRYMRLCEGVNSTVHSLETVLKLSKEFIEHDKLTQEHREVVLAFVRHTIRTCEGDRTVRLVAMLVKKLLRERVLNVEDIAADVKPFTLKYTDNRECTALYQSMINMQNGGGGGGQENMTTSTTTTTTTTKSSSPNSLSTTTTTTSHNPGASATTTTTTVVKTCGPATFKQTSRKVVLQFKNPSQNAHF | not soluble |
| MTKLEQIQQWTAQHHASMTYLSNPKTIEYLTGFGSDPIERVLALVVFPDQDPFIFAPALEVEVIKETGWQFPVIGYLDHENPWAMIADQVKQRHVNPEHVAIEKGQLQVARMEALAAQFSAPSFDLDITSFIEHMR | soluble |
| MTKLVLTPADTFFFKNHHATQAGETTVMESMFPPRPNTIYGALRAAYIYAYSSFDEFARGADERVKLWMGTPDERGAFRLHYCALADGDSLFLPLPLDYQVVEEGDSLKAYPLQLAKDRKPSSASTMWRLASSRREKTKSSQHRYVSLSEWKKALLLNQPIASLRTLSSFIVQEEKVGIQLDVSRRTAQEGFLYRVGKHRFLGDSSLVAYIDDGPDFSNVKWARIGGENRPWFIRQHPEEFRLWNDDEKRRIEQDIQRTKMAKIIFLSPAIFANGSRPAAMEGDRWTWPNGAVVTWLAAAIGRPELYGGWDIVRHRPKPRKWMIPAGSVIYVKIERDDDLRLVFSALDGIHLTDEGAEEGFGFAVLASVHESEEEL | not soluble |
| MTKPRYNDVLFDDDDSVPSESVTRKSQRRKATSPGESRESSKDRLLILPSMGESYTEYVDSYLNLELLERGERETPIFLESLTRQLTQKIYELIKTKSLTADTLQQISDKYDGVVAENKLLFLQRQYYVDDEGNVRDGRNNDKIYCEPKHVYDMVMATHLMNKHLRGKTLHSFLFSHFANISHAIIDWVQQFCSKCNKKGKIKPLKEYKR | not soluble |
| MTKQAEETQKPIIFAPETYQYDKFTLNEKQLTDDPIDLFTKWFNEAKEDPRETLPEAITFSSAELPSGRVSSRILLFKELDHRGFTIYSNWGTSRKAHDIATNPNAAIVFFWKDLQRQVRVEGITEHVNRETSERYFKTRPRGSKIGAWASRQSDVIKNREELDELTQKNTERFKDAEDIPCPDYWGGLRIVPLEIEFWQGRPSRLHDRFVYRRKTENDPWKVVRLAP | soluble |
| MTKRIEIKPATAADQAALAEIYLVDRQQDFPWVTDPQLQDFNEDSRGEFVLVAWIDGQRAGFCSLYRLANFIHLLFVAPDFRHLKVGERLLTEMRQYATEPLTLKCVMANENALRFYAQVGFRIVK | not soluble |
| MTKRLFLPEWAPQEAVQLTWPHDRTDWAYMLDEVETCFVRIATAILRHERLIVVCPDRKRVFGLLPPELHHRLYCFELPSNDTWARDHGGISLLADGRPMIADFAFNGWGMKFAAHHDNLITRRLHALGLFAEGVTLDNRLAFVLEGGALETDGEGTLLTTDSCLFEPNRNAGLSRTAIIDTLKESLGVSRVLSLRHGALAGDDTDGHIDTLARFVDTRTIVYVRSEDPSDEHYSDLTAMEQELKELRRPDGQPYRLVPLPMAEALYDGADRLPATYANFLIINGAVLVPTYDSHLDAVALSVMQGLFPDREVIGIDCRPLVKQHGSLHCVTMQYPQGFIRLEHHHHHH | soluble |
| MTKTEKDWFQRLIKLIKSDGRTMIEISKAAGCGQNYVQQMIKGGKRPSVDKLMALLNTLGNASAIYVITGFNISDEDLKLIALISSGDKKKIEALSLLLTEKKQ | not soluble |
| MTKTNLITGFLGSGKTTSILHLLAHKDPAEKWAVLVNEFGEVGIDGALLADSGALLKEIPGGCMCCVNGLPMQVGLNTLLRQGKPDRLLIEPTGLGHPKQILDLLTAPVYEPWIDLRATLCILDPRLLLDQQSVANENFRDQLASADIIIANKTDRATAQSDAALQQWWRQYGGDRQLIHAEHGQIDGKLLDLPRQNLAELPASAAHSHTHASKKGLAALNLPAQQRWRRSLNSGQGHQACGWIFDADTVFDTIGLLEWARLAPVGRVKGVMRIQEGLVRINRQGDDLHIETQSVAPPDSRVELISNTETDWNTLQTALLKLRLATHA | not soluble |
| MTKVTREEVEHIANLARLQISPEETEEMANTLESILDFAKQNDSADTEGVEPTYHVLDLQNVLREDKAIKGIPQELALKNAKETEDGQFKVPTIMNEEDALEHHHHHH | not soluble |
| MTKWKRANPNGTRDYLFEECTLIEEVEQKLRLTFLERGYEEIRTPTIEFYDVFAFQNRPIDEEKMYKFFDEKGRIIVLRPDMTIPLARVIGTQRWDTPLKVTYSGNVFRANESHSGKYNEIVQSGIEVIGIDNVRAEIECVISVIQALQKLKVQSFTIEIGQVQLYKCIVKKLSIQDEEERVLRTYIESKNYAALSNFIGEKKLDRCDETVRLLEKLPRLFGNLEVIEEAEKLASSNEMKMAIARVKEMYETIEMLGYGSYISIDLGMIQHLDYYTGVIFKGYIYEIGEEIVSGGRYDELIGNFGEMLPAVGLAVQVNQIVKALQEQQEPYERNQIDIVIHYELNRLAEAERLRNLLRKDGKNAWLSLFSNLSDTFQFARKNKIGTVVEAQNEYLVEYVWNEKWVVQKEGEASCVTFKLR | not soluble |
| MTLALLGSSLPAASLQAGETGISVSASSTVTYNPDTAEFTTTVESTDKDAAKAAAKVATLWSSLQQALRKVGISSADASSTSYTVSPEWEWNSANGKREFKGYKARHVVRVVVRDLGKLGGAIDAVVGAGSGTVDGLSYSSSRFESLRTQALENAVKSAKHDAEVMARAAGGRLGQPLELQYGQPQSDYPVMRFAMAEGFKAAPAPTDVEPGEQKLTVSVSSRWQFVSGSGKLEHHHHHH | not soluble |
| MTLDESCKILNIEESKGDLNMDKINNRFNYLFEVNDKEKGGSFYLQSKVYRAAERLKWELAQREK | soluble |
| MTLFEPSTSGNRMGYRGSSNSSSGVGSGGSGSLMTQSIGGPNKHLSASHSTLNTASTHDMMHSKIPKSPSNESLSRSHTSSSGGSQGGHNSNSGSNSGFRPEDAVQTFGAKLVPFEKNEIYNYTRVFFVGSHAKKQAGVIGGANNGGYDDENGSYQLVVHDHIAYRYEVLKVIGKGSFGQVIKAFDHKYQQYVALKLVRNEKRFHRQADEEIRILDHLRRQDSDGTHNIIHMLDYFNFRNHKCITFELLSINLYELIKRNKFQGFSLMLVRKFAYSMLLCLDLLQKNRLIHCDLKPENVLLKQQGRSGIKVIDFGSSCFDDQRIYTYIQSRFYRAPEVILGTKYGMPIDMWSLGCILAELLTGYPLLPGEDENDQLALIIELLGMPPPKSLETAKRARTFITSKGYPRYCTATSMPDGSVVLAGARSKRGKMRGPPASRSWSTALKNMGDELFVDFLKRCLDWDPETRMTPAQALKHKWLRRRLPNPPRDGLESMGGLADHEVCFIIF | not soluble |
| MTLIEPDMNLRMPDISTTVETLNLISKMEAQKENIRSVIAPEHKHKYKDIENGLKGEEKVLIEQMAQHCEAFKANFKGAAQGDWVKSAMSEIDSIKDDLKKINSLEHHHHHH | not soluble |
| MTLLASLRDWLKAQQLDAVLLSSRQNKQPHLGISTGSGYVVISRESAHILVDSRYYVEVEARAQGYQLHLLDATNTLTTIVNQIIADEQLQTLGFEGQQVSWETAHRWQSELNAKLVSATPDVLRQIKTPEEVEKIRLACGIADRGAEHIRRFIQAGMSEREIAAELEWFMRQQGAEKASFDTIVASGWRGALPHGKASDKIVAAGEFVTLDFGALYQGYCSDMTRTLLVNGEGVSAESHLLFNVYQIVLQAQLAAISAIRPGVRCQQVDDAARRVITEAGYGDYFGHNTGHAIGIEVHEDPRFSPRDTTTLQPGMLLTVEPGIYLPGQGGVRIEDVVLVTPQGAEVLYAMPKTVLLTGEA | soluble |

— the DeepSol protein solubility set
